# Reference: article PMC4271445
# Biological target: Nullbasic-FLAG-V5-6xHis (HIV-1)
# Test: BLI
binder,measurement,value
Myc-DDK-tagged DDX1 (natural protein) MAAFSEMGVMPEIAQAVEEMDWLLPTDIQAESIPLILGGGDVLMAAETGSGKTGAFSIPVIQIVYETLKDQQEGKKGKTTIKTGASVLNKWQMNPYDRGSAFAIGSDGLCCQSREVKEWHGCRATKGLMKGKHYYEVSCHDQGLCRVGWSTMQASLDLGTDKFGFGFGGTGKKSHNKQFDNYGEEFTMHDTIGCYLDIDKGHVKFSKNGKDLGLAFEIPPHMKNQALFPACVLKNAELKFNFGEEEFKFPPKDGFVALSKAPDGYIVKSQHSGNAQVTQTKFLPNAPKALIVEPSRELAEQTLNNIKQFKKYIDNPKLRELLIIGGVAARDQLSVLENGVDIVVGTPGRLDDLVSTGKLNLSQVRFLVLDEADGLLSQGYSDFINRMHNQIPQVTSDGKRLQVIVCSATLHSFDVKKLSEKIMHFPTWVDLKGEDSVPDTVHHVVVPVNPKTDRLWERLGKSHIRTDDVHAKDNTRPGANSPEMWSEAIKILKGEYAVRAIKEHKMDQAIIFCRTKIDCDNLEQYFIQQGGGPDKKGHQFSCVCLHGDRKPHERKQNLERFKKGDVRFLICTDVAARGIDIHGVPYVINVTLPDEKQNYVHRIGRVGRAERMGLAISLVATEKEKVWYHVCSSRGKGCYNTRLKEDGGCTIWYNEMQLLSEIEEHLNCTISQVEPDIKVPVDEFDGKVTYGQKRAAGGGSYKGHVDILAPTVQELAALEKEAQTSFLHLGYLPNQLFRTF,Kd,6 nM
